Results taken from patent publication US20130022605A1 (published 2013).
Changes are numbered by the printed parent chain.

B1: TAR2h-12 (other)
chain: EVQLLESGGGLVQPGGSLRLSCAASGFTFVAYNMGWVRQAPGKGLEWVSFIDMYGAKTYYADSVKGRFTISRDNSKNTLYLQMNSLRAEDTAVYYCAKLCLMDCSGDIFDYWGQGTLVTVSS
B2: TAR2h-35 (other)
chain: EVQLLESGGGLVQPGGSLRLSCAASGFTFDAYNMFWVRQAPGKGLEWVSAISPSGRETYYADSVKGRFTISRDNSKNTLYLQMNSLRAEDTAVYYCAKRYPDFDYWGQGTLVTVSS
B3: TAR2h-67 (other)
chain: EVQLLESGGGLVQPGGSLRLSCAASGFTFEDYPMAWVRQAPGKGLEWVSFIGLKGIHTYYADSVKGRFTISRDNSKNTLYLQMNSLRAEDTAVYYCAKDLNNFDYWGQGTLVTVSS
B4: TAR2h-18 (other)
chain: EVQLLESGGGLVQPGGSLRLSCAASGFTFADYNMTWVRQAPGKGLEWVSWIDQEGVFTYYADSVKGRFTISRDNSKNTLYLQMNSLRAEDTAVYYCAKDFSAAVMLRTSFDYWGQGTLVTVSS
B5: TAR2h-13 (other)
chain: EVQLLESGGGLVQPGGSLRLSCAASGFTFPADEMYWVRQAPGKGLEWVSSIGWPGGATYYADSVKGRFTISRDNSKNTLYLQMNSLRAEDTAVYYCAKYGRNFDYWGQGTLVTVSS
B6: TAR2h-34 (other)
chain: EVQLLESGGGLVQPGGSLRLSCAASGFTFPEYGMAWVRQAPGKGLEWVSTISHGGEHTYYADSVKGRFTISRDNSKNTLYLQMNSLRAEDTAVYYCAQHPVSHPKFDYWGQGTLVTVSS
notes: anti-human TNFR1 dAb
B7: TAR2h-17 (other)
chain: EVQLLESGGGLVQPGGSLRLSCAASGFTFGGYQMGWVRQAPGKGLEWVSFIDFTGAHTYYADSVKGRFTISRDNSKNTLYLQMNSLRAEDTAVYYCAKLSDDLTLPERFPFDYWGQGTLVTVSS
notes: anti-human TNFR1 dAb
B8: TAR2h-22 (other)
chain: EVQLLESGGGLVQPGGSLRLSCAASGFTFGEYNMAWVRQAPGKGQEWVSFISTGGHVTYYADSVKGRFTISRDNSKNTLYLQMNSLRAEDTAVYYCAKFSVRFRSSIFDYWGQGTLVTVSS
notes: anti-human TNFR1 dAb
B9: TAR2h-10-1 (other)
chain: EVQLLESGGGLVQPGGSLRLSCAASGFTFEWYWMGWVRQAPGKGLEWVSAISGSGGSTYYADSVKGRFTISRDNSKNTLYLQMNNLRAEDTAVYYCAKVKLGGGPNFDYRGQGTLVTVSS
notes: anti-human TNFR1 dAb
B10: TAR2h-10-4 (other)
chain: B9 chain with V37I, N85S, R110W
notes: anti-human TNFR1 dAb
B11: TAR2h-10-3 (other)
chain: B9 chain with S21T, N85S, R110W
notes: anti-human TNFR1 dAb
B12: TAR2h-51 (other)
chain: EVQLLESGGGLVQPGGSLRLSCAASGFTFATYNMSWVRQAPGKGLEWVSAIDAGGMHTYYADSVKGRFTISRDNSKNTLYLQMNSLRAEDTAVYYCAKGTEPFDYWGQGTLVTVSS
notes: anti-human TNFR1 dAb
B13: TAR2h-15 (other)
chain: EVRLLESGGGLVQPGGSLRLSCAASGFTFGKYTMTWVRQAPGKGLEWVSHISDDGNSTYYADSVKGRFTISRDNSKNTLYLQMNSLRAEDTAVYYCAKVPILAPRNLFDYWGQGTLVTVSS
notes: anti-human TNFR1 dAb
B14: TAR2h-47 (other)
chain: EVQLLESGGGLVQPGGSLRLSCAASGFTFPVYNMAWVRQAPGKGLEWVSFIAGNGQQTYYADSVKGRFTISRDNSKNTLYLQMNSLRAEDTAVYYCAKFASKVSPMSLTDFDYWGQGTLVTVSS
notes: anti-human TNFR1 dAb

Molecular target: T1, human TNFR1 on HeLa cells (human, UniProt P19438 30-455)
T1 sequence (looked up): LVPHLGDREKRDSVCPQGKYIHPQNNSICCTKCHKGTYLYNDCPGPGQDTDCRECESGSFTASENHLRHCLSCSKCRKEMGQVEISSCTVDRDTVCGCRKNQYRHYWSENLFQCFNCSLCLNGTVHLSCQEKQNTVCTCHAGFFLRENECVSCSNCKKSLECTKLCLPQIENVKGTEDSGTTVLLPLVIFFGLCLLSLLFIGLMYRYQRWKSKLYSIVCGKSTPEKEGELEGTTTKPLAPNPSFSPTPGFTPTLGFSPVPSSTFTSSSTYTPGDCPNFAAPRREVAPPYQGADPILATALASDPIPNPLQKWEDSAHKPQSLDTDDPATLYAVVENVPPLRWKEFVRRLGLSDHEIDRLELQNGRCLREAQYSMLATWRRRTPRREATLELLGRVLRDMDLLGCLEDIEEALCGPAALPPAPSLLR
Assay: cell-based or functional assay

HeLa IL-8 Cell Assay, Activity (IC50) [nM]	Binder
100	B1
800	B2
300	B3
400	B4
300	B5

Molecular target: T2, TNF receptor 1 Fc fusion protein (R&D Systems) (human, UniProt P19438 30-211, limits assumed)
T2 construct: bought; also called recombinant TNF receptor 1 (p55); TNFR1-Fc; not shown: Fc part of the bought fusion protein; not described
T2 sequence: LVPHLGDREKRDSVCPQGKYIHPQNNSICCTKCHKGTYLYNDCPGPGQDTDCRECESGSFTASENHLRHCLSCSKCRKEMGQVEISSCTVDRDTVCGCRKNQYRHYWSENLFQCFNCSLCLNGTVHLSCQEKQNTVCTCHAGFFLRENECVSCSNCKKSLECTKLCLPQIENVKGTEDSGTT
Assay: receptor binding assay

IC50 [nM]	Binder
300	B6
100	B7
200	B8
10	B9
8	B10
11	B11
80	B12
5	B13
8	B14
